Measurements as given in patent US20110111454.

B1: CgtBOH4384 (FL, N-terminal MalE) (protein)
chain: MFKISIILPTYNVEQYIARAIESCINQTFKDIEIIVVDDCGNDNSINIAKEYSKKDKRIKIIHNEKNLGLLRARYEGVKVANSPYIMFLDPDDYLELNACEECIKILDEQDEVDLVFFNAIVESNVISYKKFDFNSGFYSKKEFVKKIIAKKNLYWTMWGKLIRKKLYLEAFASLRLEKDVKINMAEDVLLYYPMLSQAQKIAYMNCNLYHYVPNNNSICNTKNEVLVKNNIQELQLVLNYLRQNYILNKYCSVLYVLIKYLLYIQIYKIKRTKLMVTLLAKINILTLKILFKYKKFLKQC
B2: CgtB11168 (FL, N-terminal MalE) (protein)
chain: MSQISIILPTYNVEKYIARALESCINQTFKDIEIIVVDDCGNDKSIDIAKEYASKDDRIKIIHNEENLKLLRARYEGAKVATSPYIMFLDSDDYLELNACEECIKILDMGGGGKIDLLCFEAFITNAKKSIKKLNIKQGKYNNKEFTMQILKTKNPFWTMWAKIIKKDIYLKAFNMLNLKKEIKINMAEDALLYYPLTILSNEIFYLTQPLYTQHVNSNSITNNINSLEANIQEHKIVLNVLKSIKNKKTPLYFLIIYLLKIQLLKYEQNFNKRNINLIYYKINILYQKYQFKWKKFLYNLIP

Target: T1, IFNα2b[Tn]-FCHASE
T1 chain: VGVTETP

| Protein | Specific Activity (mU/mg) on 1 mM IFNα2b[Tn]-FCHASE [mU/mg] | conversion of the glycopeptide acceptor by capillary electrophoresis |
| --- | --- | --- |
| B1 | 83.5 | – |
| B2 | – | ND^2 (For the CgtB enzyme from the 11168 only very low-level conversion was detectable on the glycopeptide acceptor by capillary electrophoresis <5%.) |
